Test results as given in article PMC3807708.

How the values were obtained:
[1] = biological target: extracellular domain of human interferon-γ receptor 1 (IFN-γ-Rx), mutant H222R (human) (UniProt P15260); experiment: SPR; His-tagged receptor immobilised on Ni2+-coated HTG chip; IFN-γ-SC as analyte; PBST; 20 °C; preliminary data of temperature dependency
[2] = biological target: extracellular domain of human interferon-γ receptor 1 (IFN-γ-Rx), mutant N70G (human) (UniProt P15260); experiment: as above
[3] = biological target: extracellular domain of human interferon-γ receptor 1 (IFN-γ-Rx), mutant N96W (human) (UniProt P15260); experiment: as above
[4] = biological target: extracellular domain of human interferon-γ receptor 1 (IFN-γ-Rx), mutant S95R (human) (UniProt P15260); experiment: as above
[5] = biological target: extracellular domain of human interferon-γ receptor 1 (IFN-γ-Rx), wild type (human) (UniProt P15260); experiment: as above
[6] = biological target: extracellular domain of human interferon-γ receptor 1 (IFN-γ-Rx), mutant H222R (human) (UniProt P15260); experiment: SPR; His-tagged receptor immobilised on Ni2+-coated HTG chip; IFN-γ-SC as analyte; PBST; 30 °C; preliminary data of temperature dependency
[7] = biological target: extracellular domain of human interferon-γ receptor 1 (IFN-γ-Rx), mutant N70G (human) (UniProt P15260); experiment: as above
[8] = biological target: extracellular domain of human interferon-γ receptor 1 (IFN-γ-Rx), mutant N96W (human) (UniProt P15260); experiment: as above
[9] = biological target: extracellular domain of human interferon-γ receptor 1 (IFN-γ-Rx), mutant S95R (human) (UniProt P15260); experiment: as above
[10] = biological target: extracellular domain of human interferon-γ receptor 1 (IFN-γ-Rx), wild type (human) (UniProt P15260); experiment: as above
[11] = biological target: extracellular domain of human interferon-γ receptor 1 (IFN-γ-Rx), mutant H222R (human) (UniProt P15260); experiment: SPR; His-tagged receptor immobilised on Ni2+-coated HTG chip; IFN-γ-SC as analyte; PBST; 35 °C; preliminary data of temperature dependency
[12] = biological target: extracellular domain of human interferon-γ receptor 1 (IFN-γ-Rx), mutant N70G (human) (UniProt P15260); experiment: as above
[13] = biological target: extracellular domain of human interferon-γ receptor 1 (IFN-γ-Rx), mutant N96W (human) (UniProt P15260); experiment: as above
[14] = biological target: extracellular domain of human interferon-γ receptor 1 (IFN-γ-Rx), mutant S95R (human) (UniProt P15260); experiment: as above
[15] = biological target: extracellular domain of human interferon-γ receptor 1 (IFN-γ-Rx), wild type (human) (UniProt P15260); experiment: as above
IFN-γ-Rx H222D (human) = IFN-γ-Rx H222D (human) (UniProt P15260); experiment: SPR; ProteOn XPR36; His-tagged receptor immobilised on Ni2+-activated HTG chip; IFN-γ-SC as analyte, 1.2 to 99 nM; PBST (PBS pH 7.4, 0.005% Tween20); 25°C; 1:1 Langmuir with drift model; doubly referenced
IFN-γ-Rx N65R (human) = IFN-γ-Rx N65R (human) (UniProt P15260); experiment: as above
IFN-γ-Rx N70G (human) = IFN-γ-Rx N70G (human) (UniProt P15260); experiment: as above
IFN-γ-Rx N96F (human) = IFN-γ-Rx N96F (human) (UniProt P15260); experiment: as above
[16] = biological target: IFN-γ-Rx S95R + H222R (human) (UniProt P15260); experiment: as above

**Q.** “single-chain form of human interferon-γ (IFN-γ-SC) (ligand)” was tested. Which Kd [1] did it give?
**A.** 19.4 nM

**Q.** What about the Kd [2] of the same substance?
**A.** 17.3 nM

**Q.** And the Kd [3]?
**A.** 5.28 nM

**Q.** What about the Kd [4] of the same substance?
**A.** 44.4 nM

**Q.** What about the Kd [5] of the same substance?
**A.** 21.7 nM

**Q.** What about the Kd [6] of the same substance?
**A.** 56 nM

**Q.** What about the Kd [7] of the same substance?
**A.** 49.2 nM

**Q.** And the Kd [8]?
**A.** 12.2 nM

**Q.** What about the Kd [9] of the same substance?
**A.** 107 nM

**Q.** And the Kd [10]?
**A.** 59.9 nM

**Q.** And the Kd [11]?
**A.** 103 nM

**Q.** And the Kd [12]?
**A.** 77 nM

**Q.** What about the Kd [13] of the same substance?
**A.** 24.3 nM

**Q.** What about the Kd [14] of the same substance?
**A.** 153 nM

**Q.** And the Kd [15]?
**A.** 92.8 nM

**Q.** What about the fold change of Kd against WT (IFN-γ-Rx H222D (human)) of the same substance?
**A.** 2.2 fold

**Q.** And the Kd (IFN-γ-Rx N65R (human))?
**A.** 71.2 nM

**Q.** What about the koff (IFN-γ-Rx N65R (human)) of the same substance?
**A.** 0.0628 s⁻¹

**Q.** And the kon (IFN-γ-Rx N65R (human))?
**A.** 882000 M⁻¹ s⁻¹

**Q.** What about the Kd (IFN-γ-Rx N70G (human)) of the same substance?
**A.** 23.6 nM

**Q.** And the koff (IFN-γ-Rx N70G (human))?
**A.** 0.0264 s⁻¹

**Q.** What about the kon (IFN-γ-Rx N70G (human)) of the same substance?
**A.** 1.12e+06 M⁻¹ s⁻¹

**Q.** And the Kd (IFN-γ-Rx N96F (human))?
**A.** 28 nM

**Q.** What about the koff (IFN-γ-Rx N96F (human)) of the same substance?
**A.** 0.0283 s⁻¹

**Q.** And the kon (IFN-γ-Rx N96F (human))?
**A.** 1.01e+06 M⁻¹ s⁻¹

**Q.** What about the Kd [16] of the same substance?
**A.** 56.3 nM

**Q.** And the koff [16]?
**A.** 0.059 s⁻¹

**Q.** And the kon [16]?
**A.** 1.05e+06 M⁻¹ s⁻¹
